Experiment [1] deals with T1, biotinylated human 4-1BB (bio.h4-1BB) (human, UniProt Q07011 24-186, limits assumed, biotinylated (site not stated)).
T1 construct: also called CD137
In words: SPR (ProteOn XPR36), biotinylated human 4-1BB immobilised, construct as analyte.

Experiment [2] addresses T2, human fibroblast activation protein (hFAP) (human, UniProt Q12884 26-760, limits assumed).
T2 construct: Recombinant soluble protein; also called human FAP; rhFAP
In words: SPR (ProteOn XPR36), hFAP immobilised on GLC chip, construct as analyte. As for the experimental part:
Assay set-up: Briefly, SPR measurements were performed using a ProteOn XPR36 instrument (BioRad) as described above. Biotinylated human and cynomolgus 4-1BB and human FAP were immobilized either directly or indirectly via NeutrAvidin (˜6000 RU pre-coated) on a GLC chip to reach 600 RU, 700 RU and 2000 RU, respectively. The interaction of FAP-4-1BB bispecific constructs to the coated targets was measured by injecting the bispecific constructs in a serial dilution of 50, 16.7, 5.6, 1.9 and 0.6 nM with an association of 120 s and dissociation of 1800 s using a constant flow rate of 30 μl/min. Targets were regenerated between the individual measurements using 10 mM glycine pH 2 and 124 mM H₃PO₄. The signals were double referenced against the running buffer (PBST) treated control lane.

T2 sequence (Q12884 26-760 limits assumed): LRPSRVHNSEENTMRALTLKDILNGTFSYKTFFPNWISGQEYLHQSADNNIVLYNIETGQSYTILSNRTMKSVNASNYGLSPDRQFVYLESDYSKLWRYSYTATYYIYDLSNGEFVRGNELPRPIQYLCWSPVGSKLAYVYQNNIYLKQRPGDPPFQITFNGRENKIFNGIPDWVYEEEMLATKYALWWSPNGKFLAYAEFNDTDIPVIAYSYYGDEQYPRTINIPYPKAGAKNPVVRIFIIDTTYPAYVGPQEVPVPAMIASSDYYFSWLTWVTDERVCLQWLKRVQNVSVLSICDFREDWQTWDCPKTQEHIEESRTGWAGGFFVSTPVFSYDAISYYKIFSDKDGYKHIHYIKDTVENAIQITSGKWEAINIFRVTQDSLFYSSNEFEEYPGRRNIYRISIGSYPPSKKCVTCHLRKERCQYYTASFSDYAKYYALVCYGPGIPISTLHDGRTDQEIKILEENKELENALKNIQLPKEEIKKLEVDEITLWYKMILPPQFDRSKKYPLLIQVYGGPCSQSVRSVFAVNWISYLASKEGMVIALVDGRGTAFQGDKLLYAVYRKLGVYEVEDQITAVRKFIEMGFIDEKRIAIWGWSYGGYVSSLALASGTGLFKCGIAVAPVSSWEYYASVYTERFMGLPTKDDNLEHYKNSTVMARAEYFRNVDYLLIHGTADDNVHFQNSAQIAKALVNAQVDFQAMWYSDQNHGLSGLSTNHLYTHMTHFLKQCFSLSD
T1 sequence (Q07011 24-186 limits assumed): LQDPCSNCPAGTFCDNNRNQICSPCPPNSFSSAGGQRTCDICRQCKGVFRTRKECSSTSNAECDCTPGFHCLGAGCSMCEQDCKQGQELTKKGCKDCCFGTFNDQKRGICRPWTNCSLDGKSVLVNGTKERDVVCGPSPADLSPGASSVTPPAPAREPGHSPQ

B1: bispecific construct #50 (designed binder)
chain: MRGSHHHHHHGSDLGEKLLVAALYGQDDEVRILLAAGADVNAKDQWGLTPLHKAALQGHLEIVEVLLKAGADVNAKDERGHTPLHWAARFGHLEIVEVLLKAGADVNAQDQKGYTPADLAALWGHEDIAEVLQKAAGSPTPTPTTPTPTPTTPTPTPTGSDLGKKLLEAARAGQDDEVRELLKAGADVNAKDKDGYTPLHLAAREGHLEIVEVLLKAGADVNAKDKDGYTPLHLAAREGHLEIVEVLLKAGADVNAQDKSGKTPADLAADAGHEDIAEVLQKAA
notes: also called negative control construct #50
For B1, the binding result in experiment [1] is reported as “no binding (tested: 50 nM highest concentration injected)”. In experiment [2], this molecule gave a Kd of 0.22 nM.

Broadly, the Kd is the equilibrium constant for the complex coming apart. The low end stands for tighter binding, the high end for weaker binding.

Values taken from patent US20240190999A1 (Molecular Partners, published 2024).
